The source of these data is publication PMC3032569 (The Biochemical journal, 2009).

Where no end group is shown, it is not given here.

In the experiment the target is T1, E. coli TonB C-terminal domain (TonB CTD, residues 103-239) (E. coli, UniProt P02929 103-239).
T1 sequence (looked up): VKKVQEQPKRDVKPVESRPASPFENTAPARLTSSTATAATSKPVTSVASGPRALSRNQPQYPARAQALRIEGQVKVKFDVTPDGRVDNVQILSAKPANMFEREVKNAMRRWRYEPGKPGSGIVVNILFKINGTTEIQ
Put plainly: NMR titration.

B1: FhuA TonB box peptide (peptide)
peptide: Ac-EDTITVTAAP
On to B1, for which the binding result is reported as “binds”.
